Assay results as given in the supplement of paper PMC10567573.

B1: TMEM40 (parent)
chain: YGETDFHKQDGKAGLFSQEQYERN

Variants of: B1
Experiment: protein stability index of a GFP-peptide fusion (GPS, HEK-293T) (PSI 1-6); higher = more stable
Settings: c terminus: a fixed tail appended
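Further: lentivirally expressed fusions sorted by FACS into six bins by GFP to DsRed ratio, PSI derived from sequencing read proportions per bin multiplied by bin number.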

Variant | protein stability index
YVETDFHKQDGKAGLFSQEQYERN | 1.6
YTETDFHKQDGKAGLFSQEQYERN | 4.11
YKETDFHKQDGKAGLFSQEQYERN | 4.68
YRETDFHKQDGKAGLFSQEQYERN | 4.66
YSETDFHKQDGKAGLFSQEQYERN | 4.56
YMETDFHKQDGKAGLFSQEQYERN | 3.92
YWETDFHKQDGKAGLFSQEQYERN | 3.62
YLETDFHKQDGKAGLFSQEQYERN | 4.46
YQETDFHKQDGKAGLFSQEQYERN | 3.67
YNETDFHKQDGKAGLFSQEQYERN | 4.78
YYETDFHKQDGKAGLFSQEQYERN | 4.57
YPETDFHKQDGKAGLFSQEQYERN | 4.95
YGETFFHKQDGKAGLFSQEQYERN | 1.49
YGETVFHKQDGKAGLFSQEQYERN | 3.2
YGETAFHKQDGKAGLFSQEQYERN | 2.92
YGETKFHKQDGKAGLFSQEQYERN | 3.2
YGETHFHKQDGKAGLFSQEQYERN | 2.83
YGETQFHKQDGKAGLFSQEQYERN | 3.81
YGETPFHKQDGKAGLFSQEQYERN | 4.14
YGETEFHKQDGKAGLFSQEQYERN | 4.37
YGETGFHKQDGKAGLFSQEQYERN | 2.37
YGETIFHKQDGKAGLFSQEQYERN | 3.15
YGETSFHKQDGKAGLFSQEQYERN | 2.88
YGETNFHKQDGKAGLFSQEQYERN | 3.24

Variant | protein stability index
YGETLFHKQDGKAGLFSQEQYERN | 3.07
YGETRFHKQDGKAGLFSQEQYERN | 3.38
YGETTFHKQDGKAGLFSQEQYERN | 2.99
YGETCFHKQDGKAGLFSQEQYERN | 2.36
YGETYFHKQDGKAGLFSQEQYERN | 2.04
YGETMFHKQDGKAGLFSQEQYERN | 2.58
YGETDFHFQDGKAGLFSQEQYERN | 3.77
YGETDFHLQDGKAGLFSQEQYERN | 4.29
YGETDFHRQDGKAGLFSQEQYERN | 3.86
YGETDFHYQDGKAGLFSQEQYERN | 3.96
YGETDFHHQDGKAGLFSQEQYERN | 4.18
YGETDFHNQDGKAGLFSQEQYERN | 4.01
YGETDFHMQDGKAGLFSQEQYERN | 3.71
YGETDFHDQDGKAGLFSQEQYERN | 5.12
YGETDFHQQDGKAGLFSQEQYERN | 4.66
YGETDFHPQDGKAGLFSQEQYERN | 4.7
YGETDFHSQDGKAGLFSQEQYERN | 4.66
YGETDFHVQDGKAGLFSQEQYERN | 4.34
YGETDFHTQDGKAGLFSQEQYERN | 4.46
YGETDFHCQDGKAGLFSQEQYERN | 4.5
YGETDFHAQDGKAGLFSQEQYERN | 4.53
YGETDFHGQDGKAGLFSQEQYERN | 4.31
YGETDFHIQDGKAGLFSQEQYERN | 3.89
YGETDFHEQDGKAGLFSQEQYERN | 4.67

Variant | protein stability index
YGETDFHWQDGKAGLFSQEQYERN | 2.36
YGETDFHKQDRKAGLFSQEQYERN | 4.08
YGETDFHKQDSKAGLFSQEQYERN | 4.55
YGETDFHKQDYKAGLFSQEQYERN | 3.75
YGETDFHKQDFKAGLFSQEQYERN | 3.86
YGETDFHKQDWKAGLFSQEQYERN | 3.2
YGETDFHKQDQKAGLFSQEQYERN | 4.04
YGETDFHKQDPKAGLFSQEQYERN | 3.46
YGETDFHKQDIKAGLFSQEQYERN | 3.9
YGETDFHKQDEKAGLFSQEQYERN | 4.68
YGETDFHKQDAKAGLFSQEQYERN | 4.25
YGETDFHKQDNKAGLFSQEQYERN | 4.32
YGETDFHKQDVKAGLFSQEQYERN | 4.21
YGETDFHKQDCKAGLFSQEQYERN | 3.77
YGETDFHKQDMKAGLFSQEQYERN | 4.58
YGETDFHKQDKKAGLFSQEQYERN | 4.16
YGETDFHKQDDKAGLFSQEQYERN | 4.5
YGETDFHKQDTKAGLFSQEQYERN | 3.68
YGETDFHKQDHKAGLFSQEQYERN | 4.16
YGEADFHKQDGKAGLFSQEQYERN | 3.78
YGENDFHKQDGKAGLFSQEQYERN | 4.59
YGEQDFHKQDGKAGLFSQEQYERN | 4.14
YGEGDFHKQDGKAGLFSQEQYERN | 4.61
YGESDFHKQDGKAGLFSQEQYERN | 4.06

Variant | protein stability index
YGEFDFHKQDGKAGLFSQEQYERN | 4.43
YGEIDFHKQDGKAGLFSQEQYERN | 4
YGEKDFHKQDGKAGLFSQEQYERN | 3.59
YGEVDFHKQDGKAGLFSQEQYERN | 4.14
YGEMDFHKQDGKAGLFSQEQYERN | 3.67
YGELDFHKQDGKAGLFSQEQYERN | 3.69
YGECDFHKQDGKAGLFSQEQYERN | 4.34
YGEWDFHKQDGKAGLFSQEQYERN | 3.28
YGEYDFHKQDGKAGLFSQEQYERN | 4.04
YGEHDFHKQDGKAGLFSQEQYERN | 4.13
YGEDDFHKQDGKAGLFSQEQYERN | 4.66
YGEPDFHKQDGKAGLFSQEQYERN | 3.62
YGEEDFHKQDGKAGLFSQEQYERN | 4.83
YGERDFHKQDGKAGLFSQEQYERN | 3.33
YGETDFHKQKGKAGLFSQEQYERN | 3.44
YGETDFHKQNGKAGLFSQEQYERN | 3.92
YGETDFHKQTGKAGLFSQEQYERN | 3.04
YGETDFHKQMGKAGLFSQEQYERN | 1.47
YGETDFHKQCGKAGLFSQEQYERN | 2.46
YGETDFHKQSGKAGLFSQEQYERN | 2.96
YGETDFHKQLGKAGLFSQEQYERN | 2.09
YGETDFHKQWGKAGLFSQEQYERN | 2.27
YGETDFHKQHGKAGLFSQEQYERN | 2.77
YGETDFHKQEGKAGLFSQEQYERN | 3.72

Variant | protein stability index
YGETDFHKQYGKAGLFSQEQYERN | 2.85
YGETDFHKQVGKAGLFSQEQYERN | 2
YGETDFHKQFGKAGLFSQEQYERN | 2.26
YGETDFHKQRGKAGLFSQEQYERN | 3.37
YGETDFHKQGGKAGLFSQEQYERN | 3.24
YGETDFHKQQGKAGLFSQEQYERN | 2.9
YGETDFHKQIGKAGLFSQEQYERN | 1.92
YGETDFHKQPGKAGLFSQEQYERN | 3.12
YGETDFGKQDGKAGLFSQEQYERN | 4.58
YGETDFSKQDGKAGLFSQEQYERN | 4.67
YGETDFVKQDGKAGLFSQEQYERN | 4.24
YGETDFIKQDGKAGLFSQEQYERN | 4.37
YGETDFRKQDGKAGLFSQEQYERN | 4.08
YGETDFKKQDGKAGLFSQEQYERN | 4.18
YGETDFCKQDGKAGLFSQEQYERN | 4.35
YGETDFTKQDGKAGLFSQEQYERN | 4.53
YGETDFAKQDGKAGLFSQEQYERN | 4.48
YGETDFPKQDGKAGLFSQEQYERN | 4.3
YGETDFEKQDGKAGLFSQEQYERN | 4.93
YGETDFMKQDGKAGLFSQEQYERN | 3.9
YGETDFWKQDGKAGLFSQEQYERN | 3.12
YGETDFQKQDGKAGLFSQEQYERN | 4.32
YGETDFYKQDGKAGLFSQEQYERN | 2.17
YGETDFNKQDGKAGLFSQEQYERN | 4.91

Variant | protein stability index
YGETDFDKQDGKAGLFSQEQYERN | 5.38
YGETDFLKQDGKAGLFSQEQYERN | 3.92
YGETDFFKQDGKAGLFSQEQYERN | 1.88
YGGTDFHKQDGKAGLFSQEQYERN | 2.36
YGATDFHKQDGKAGLFSQEQYERN | 3.92
YGLTDFHKQDGKAGLFSQEQYERN | 4.08
YGPTDFHKQDGKAGLFSQEQYERN | 3.88
YGMTDFHKQDGKAGLFSQEQYERN | 3.75
YGQTDFHKQDGKAGLFSQEQYERN | 3.71
YGCTDFHKQDGKAGLFSQEQYERN | 3.12
YGFTDFHKQDGKAGLFSQEQYERN | 3.57
YGVTDFHKQDGKAGLFSQEQYERN | 4.38
YGDTDFHKQDGKAGLFSQEQYERN | 3.09
YGITDFHKQDGKAGLFSQEQYERN | 3.9
YGSTDFHKQDGKAGLFSQEQYERN | 1.98
YGTTDFHKQDGKAGLFSQEQYERN | 3.61
YGRTDFHKQDGKAGLFSQEQYERN | 3.85
YGNTDFHKQDGKAGLFSQEQYERN | 2.46
YGHTDFHKQDGKAGLFSQEQYERN | 3.23
YGKTDFHKQDGKAGLFSQEQYERN | 3.55
YGWTDFHKQDGKAGLFSQEQYERN | 3.49
YGYTDFHKQDGKAGLFSQEQYERN | 3.79
YGETDFHKQDGGAGLFSQEQYERN | 4.19
YGETDFHKQDGFAGLFSQEQYERN | 4.21

Variant | protein stability index
YGETDFHKQDGEAGLFSQEQYERN | 4.82
YGETDFHKQDGIAGLFSQEQYERN | 3.93
YGETDFHKQDGLAGLFSQEQYERN | 3.66
YGETDFHKQDGDAGLFSQEQYERN | 4.86
YGETDFHKQDGHAGLFSQEQYERN | 4.28
YGETDFHKQDGCAGLFSQEQYERN | 4.35
YGETDFHKQDGAAGLFSQEQYERN | 4.25
YGETDNHKQDGKAGLFSQEQYERN | 5
YGETDPHKQDGKAGLFSQEQYERN | 4.94
YGETDCHKQDGKAGLFSQEQYERN | 4.54
YGETDQHKQDGKAGLFSQEQYERN | 4.36
YGETDLHKQDGKAGLFSQEQYERN | 4.98
YGETDVHKQDGKAGLFSQEQYERN | 5.09
YGETDDHKQDGKAGLFSQEQYERN | 5.26
YGETDIHKQDGKAGLFSQEQYERN | 4.73
YGETDSHKQDGKAGLFSQEQYERN | 5.6
YGETDEHKQDGKAGLFSQEQYERN | 5.38
YGETDAHKQDGKAGLFSQEQYERN | 5.22
YGETDYHKQDGKAGLFSQEQYERN | 4.41
YGETDMHKQDGKAGLFSQEQYERN | 4.91
YGETDKHKQDGKAGLFSQEQYERN | 4.91
YGETDTHKQDGKAGLFSQEQYERN | 4.6
YGETDWHKQDGKAGLFSQEQYERN | 2.35
YGETDHHKQDGKAGLFSQEQYERN | 5.22

Variant | protein stability index
YGETDRHKQDGKAGLFSQEQYERN | 4.54
YGETDGHKQDGKAGLFSQEQYERN | 5.25
YGETDFHKHDGKAGLFSQEQYERN | 3.75
YGETDFHKPDGKAGLFSQEQYERN | 3.56
YGETDFHKDDGKAGLFSQEQYERN | 5.05
YGETDFHKYDGKAGLFSQEQYERN | 3.37
YGETDFHKLDGKAGLFSQEQYERN | 3.49
YGETDFHKIDGKAGLFSQEQYERN | 3.71
YGETDFHKADGKAGLFSQEQYERN | 3.96
YGETDFHKFDGKAGLFSQEQYERN | 3.38
YGETDFHKRDGKAGLFSQEQYERN | 4.13
YGETDFHKEDGKAGLFSQEQYERN | 4.78
YGETDFHKNDGKAGLFSQEQYERN | 4.53
YGETDFHKGDGKAGLFSQEQYERN | 3.73
YGETDFHKVDGKAGLFSQEQYERN | 3.6
YGETDFHKMDGKAGLFSQEQYERN | 3.17
YGETDFHKTDGKAGLFSQEQYERN | 3.85
YGETDFHKWDGKAGLFSQEQYERN | 2.99
YGETDFHKSDGKAGLFSQEQYERN | 4.33
YGETDFHKKDGKAGLFSQEQYERN | 3.7
